Results from US5534410.

Assays:
[1] = target: Sp1, over-expressed and purified from HeLa cells infected with a vaccinia virus expression vector (Homo sapiens (Human)) (UniProt P08047); test: 35S-TAF110 (reticulocyte lysate) on DNA-bound Sp1 resin, SDS-PAGE, PhosphorImager
[2] = target: GAL4-Sp1B domain fusion (Homo sapiens (Human)) (UniProt P08047)

Substance | fold greater binding to the Sp1-containing resin than to the resin without Sp1 [1] | transcription of a reporter gene dependent on GAL4 binding sites (CAT), superactivation assay in Drosophila Schneider cells [2]
Drosophila TAF110 (dTAFII110), full-length | 60 fold | –
Sp1(N539), the gln-rich A and B domains of Sp1 (from UniProt P08047) | – | 50 fold
